Results reported in paper PMC4423706, “Mechanism of Thiosulfate Oxidation in the SoxA Family of Cysteine-ligated Cytochromes” (The Journal of Biological Chemistry, 2015).

Key:
[1] = molecular target: T1, TsdA (thiosulfate dehydrogenase) (Allochromatium vinosum, UniProt D3RVD4); experiment: ESI-MS of intact protein; format: biochemical; conditions: covalent; S-thiosulfonation of Cys123, +112 Da; pH 4.25 and pH 8.0; no electron donor
T1 construct: native signal peptide (removed on export), C-terminal strep(II) tag kept; E. coli Lemo56(DE3) with pEC86; two c-type hemes; 28,228 Da by ESI-MS; 234 residues modeled
T1 sequence (D3RVD4 28-270): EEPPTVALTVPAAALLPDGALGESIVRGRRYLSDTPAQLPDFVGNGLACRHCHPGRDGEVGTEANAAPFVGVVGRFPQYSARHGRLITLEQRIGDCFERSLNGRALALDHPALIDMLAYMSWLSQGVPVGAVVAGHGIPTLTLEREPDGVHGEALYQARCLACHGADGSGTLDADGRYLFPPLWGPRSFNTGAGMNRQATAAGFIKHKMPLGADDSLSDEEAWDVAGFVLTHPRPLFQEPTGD

[2] = substrate: O=S(O)(O)=S; experiment: purified protein; format: biochemical, Allochromatium vinosum; conditions: 1 mM potassium ferricyanide as electron acceptor, 100 mM ammonium acetate pH 4.25, 24 °C

Molecule | ESI-MS of intact protein [1] | Km [2] [mM] | kcat [2] [s⁻¹]
O=S(=O)(O)SSS(=O)(=O)O [tetrathionate] | Tetrathionate treatment under both conditions gave the 112-Da increase in mass | – | –
TsdA (thiosulfate dehydrogenase) (Allochromatium vinosum DSM 180) (protein, native signal peptide (removed on export), C-terminal strep(II) tag kept; E. coli Lemo56(DE3) with pEC86; two c-type hemes; 28,228 Da by ESI-MS; 234 residues modeled) EEPPTVALTVPAAALLPDGALGESIVRGRRYLSDTPAQLPDFVGNGLACRHCHPGRDGEVGTEANAAPFVGVVGRFPQYSARHGRLITLEQRIGDCFERSLNGRALALDHPALIDMLAYMSWLSQGVPVGAVVAGHGIPTLTLEREPDGVHGEALYQARCLACHGADGSGTLDADGRYLFPPLWGPRSFNTGAGMNRQATAAGFIKHKMPLGADDSLSDEEAWDVAGFVLTHPRPLFQEPTGD | – | 2.2 ± 0.3 | 4280 ± 150
TsdA (thiosulfate dehydrogenase) (Allochromatium vinosum DSM 180; R119A) (protein, native signal peptide (removed on export), C-terminal strep(II) tag kept; E. coli Lemo56(DE3) with pEC86; two c-type hemes; 28,228 Da by ESI-MS; 234 residues modeled) EEPPTVALTVPAAALLPDGALGESIVRGRRYLSDTPAQLPDFVGNGLACRHCHPGRDGEVGTEANAAPFVGVVGRFPQYSARHGRLITLEQAIGDCFERSLNGRALALDHPALIDMLAYMSWLSQGVPVGAVVAGHGIPTLTLEREPDGVHGEALYQARCLACHGADGSGTLDADGRYLFPPLWGPRSFNTGAGMNRQATAAGFIKHKMPLGADDSLSDEEAWDVAGFVLTHPRPLFQEPTGD | – | 47 ± 7 | 640 ± 40
TsdA (thiosulfate dehydrogenase) (Allochromatium vinosum DSM 180; R109A) (protein, native signal peptide (removed on export), C-terminal strep(II) tag kept; E. coli Lemo56(DE3) with pEC86; two c-type hemes; 28,228 Da by ESI-MS; 234 residues modeled) EEPPTVALTVPAAALLPDGALGESIVRGRRYLSDTPAQLPDFVGNGLACRHCHPGRDGEVGTEANAAPFVGVVGRFPQYSAAHGRLITLEQRIGDCFERSLNGRALALDHPALIDMLAYMSWLSQGVPVGAVVAGHGIPTLTLEREPDGVHGEALYQARCLACHGADGSGTLDADGRYLFPPLWGPRSFNTGAGMNRQATAAGFIKHKMPLGADDSLSDEEAWDVAGFVLTHPRPLFQEPTGD | – | 5.8 ± 0.8 | 3210 ± 310
TsdA (thiosulfate dehydrogenase) (Allochromatium vinosum DSM 180; S127A) (protein, native signal peptide (removed on export), C-terminal strep(II) tag kept; E. coli Lemo56(DE3) with pEC86; two c-type hemes; 28,228 Da by ESI-MS; 234 residues modeled) EEPPTVALTVPAAALLPDGALGESIVRGRRYLSDTPAQLPDFVGNGLACRHCHPGRDGEVGTEANAAPFVGVVGRFPQYSARHGRLITLEQRIGDCFERALNGRALALDHPALIDMLAYMSWLSQGVPVGAVVAGHGIPTLTLEREPDGVHGEALYQARCLACHGADGSGTLDADGRYLFPPLWGPRSFNTGAGMNRQATAAGFIKHKMPLGADDSLSDEEAWDVAGFVLTHPRPLFQEPTGD | – | 10.7 ± 6.2 | 3060 ± 920
TsdA (thiosulfate dehydrogenase) (Allochromatium vinosum DSM 180; R224A) (protein, native signal peptide (removed on export), C-terminal strep(II) tag kept; E. coli Lemo56(DE3) with pEC86; two c-type hemes; 28,228 Da by ESI-MS; 234 residues modeled) EEPPTVALTVPAAALLPDGALGESIVRGRRYLSDTPAQLPDFVGNGLACRHCHPGRDGEVGTEANAAPFVGVVGRFPQYSARHGRLITLEQRIGDCFERSLNGRALALDHPALIDMLAYMSWLSQGVPVGAVVAGHGIPTLTLEREPDGVHGEALYQARCLACHGADGSGTLDADGRYLFPPLWGPRSFNTGAGMNAQATAAGFIKHKMPLGADDSLSDEEAWDVAGFVLTHPRPLFQEPTGD | – | 2.5 ± 0.8 | 3670 ± 460
